Measured values: patent publication EP4670784A1 (Eberhard Karls Universität Tübingen (Medizinische Fakultät), dated 2025)
Substitutions are numbered along the chain they refer to. Blank lines part the entries; values can stand above or below the binder they belong to.

What was measured:
[1] = biological target: T1, Recombinant human G-CSFR (Glu25-Pro621, 381-GR/CF, R&D Systems) (human, UniProt Q99062 25-621); experiment: not stated in the sentence (SPR values of Table 2 agree)
T1 construct: range 25-621; Bought protein, amine-coupled to a CM5 chip for SPR; also called rhG-CSFR; granulocyte-colony stimulating factor receptor
T1 sequence (looked up): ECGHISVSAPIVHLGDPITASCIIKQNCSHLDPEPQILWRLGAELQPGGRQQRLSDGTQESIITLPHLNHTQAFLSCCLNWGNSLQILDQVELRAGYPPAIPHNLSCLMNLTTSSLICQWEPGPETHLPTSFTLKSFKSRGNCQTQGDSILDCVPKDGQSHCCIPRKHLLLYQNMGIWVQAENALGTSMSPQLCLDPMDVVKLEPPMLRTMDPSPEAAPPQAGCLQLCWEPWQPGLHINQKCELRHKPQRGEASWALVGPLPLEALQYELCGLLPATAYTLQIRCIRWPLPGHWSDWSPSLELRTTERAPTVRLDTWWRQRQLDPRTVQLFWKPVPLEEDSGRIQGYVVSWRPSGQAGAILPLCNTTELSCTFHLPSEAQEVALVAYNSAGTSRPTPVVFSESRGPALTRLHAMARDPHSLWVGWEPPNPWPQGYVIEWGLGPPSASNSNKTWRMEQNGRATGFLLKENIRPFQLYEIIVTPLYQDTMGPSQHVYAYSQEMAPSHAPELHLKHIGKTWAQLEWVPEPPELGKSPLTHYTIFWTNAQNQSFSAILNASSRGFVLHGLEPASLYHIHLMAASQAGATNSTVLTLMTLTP

[2] = biological target: T1, Recombinant human G-CSFR (Glu25-Pro621, …); experiment: SPR, Biacore X100, multi-cycle kinetics, rhG-CSFR amine-coupled to CM5 chip, design as analyte, 1:1 model; series of Fig. 6 (from 20 nM)
[3] = biological target: T1, Recombinant human G-CSFR (Glu25-Pro621, …); experiment: SPR, Biacore X100, multi-cycle kinetics, rhG-CSFR amine-coupled to CM5 chip, design as analyte, 1:1 model; series of Fig. 13 (from 125 nM)
[4] = biological target: T1, Recombinant human G-CSFR (Glu25-Pro621, …); experiment: SPR, Biacore X100, multi-cycle kinetics, rhG-CSFR amine-coupled to CM5 chip, design as analyte, 1:1 model; series of Fig. 13 (from 31 nM)
[5] = biological target: T1, Recombinant human G-CSFR (Glu25-Pro621, …); experiment: SPR, Biacore X100, multi-cycle kinetics, rhG-CSFR amine-coupled to CM5 chip, design as analyte, 1:1 model; series of Fig. 15C (from 20 nM)
[6] = biological target: T1, Recombinant human G-CSFR (Glu25-Pro621, …); experiment: SPR, twofold dilution series from 20 nM bop3 against chip-immobilized G-CSFR (Fig. 14B); reference not named
G-CSFR on NFS-60 cells = biological target: T2, G-CSFR on NFS-60 cells (UniProt P40223 26-837, limits assumed); experiment: cell-based or functional assay
T2 sequence (looked up): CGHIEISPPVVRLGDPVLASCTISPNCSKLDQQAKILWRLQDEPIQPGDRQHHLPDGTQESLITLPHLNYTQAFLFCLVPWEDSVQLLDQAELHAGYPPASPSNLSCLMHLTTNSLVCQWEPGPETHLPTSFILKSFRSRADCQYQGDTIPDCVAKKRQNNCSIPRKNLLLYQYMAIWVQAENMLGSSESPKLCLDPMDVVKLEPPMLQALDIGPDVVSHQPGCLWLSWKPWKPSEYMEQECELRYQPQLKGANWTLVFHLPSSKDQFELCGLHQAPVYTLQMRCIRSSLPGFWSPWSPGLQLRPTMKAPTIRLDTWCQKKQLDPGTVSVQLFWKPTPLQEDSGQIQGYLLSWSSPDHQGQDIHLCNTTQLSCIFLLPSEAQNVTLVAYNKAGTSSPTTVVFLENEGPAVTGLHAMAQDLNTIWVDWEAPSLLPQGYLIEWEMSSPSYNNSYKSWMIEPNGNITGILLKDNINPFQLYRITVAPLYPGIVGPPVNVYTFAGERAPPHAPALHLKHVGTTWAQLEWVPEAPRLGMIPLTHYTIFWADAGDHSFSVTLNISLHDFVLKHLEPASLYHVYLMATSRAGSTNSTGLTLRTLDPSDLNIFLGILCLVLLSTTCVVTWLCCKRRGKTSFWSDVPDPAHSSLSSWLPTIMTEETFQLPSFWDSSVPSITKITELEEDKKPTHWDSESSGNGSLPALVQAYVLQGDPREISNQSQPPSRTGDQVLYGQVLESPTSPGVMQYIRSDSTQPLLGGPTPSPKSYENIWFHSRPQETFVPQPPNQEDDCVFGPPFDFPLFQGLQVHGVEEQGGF

G-CSFR on Kasumi-1 cells = biological target: T3, G-CSFR on Kasumi-1 cells (UniProt Q99062 25-836, limits assumed); experiment: cell-based or functional assay
T3 sequence (looked up): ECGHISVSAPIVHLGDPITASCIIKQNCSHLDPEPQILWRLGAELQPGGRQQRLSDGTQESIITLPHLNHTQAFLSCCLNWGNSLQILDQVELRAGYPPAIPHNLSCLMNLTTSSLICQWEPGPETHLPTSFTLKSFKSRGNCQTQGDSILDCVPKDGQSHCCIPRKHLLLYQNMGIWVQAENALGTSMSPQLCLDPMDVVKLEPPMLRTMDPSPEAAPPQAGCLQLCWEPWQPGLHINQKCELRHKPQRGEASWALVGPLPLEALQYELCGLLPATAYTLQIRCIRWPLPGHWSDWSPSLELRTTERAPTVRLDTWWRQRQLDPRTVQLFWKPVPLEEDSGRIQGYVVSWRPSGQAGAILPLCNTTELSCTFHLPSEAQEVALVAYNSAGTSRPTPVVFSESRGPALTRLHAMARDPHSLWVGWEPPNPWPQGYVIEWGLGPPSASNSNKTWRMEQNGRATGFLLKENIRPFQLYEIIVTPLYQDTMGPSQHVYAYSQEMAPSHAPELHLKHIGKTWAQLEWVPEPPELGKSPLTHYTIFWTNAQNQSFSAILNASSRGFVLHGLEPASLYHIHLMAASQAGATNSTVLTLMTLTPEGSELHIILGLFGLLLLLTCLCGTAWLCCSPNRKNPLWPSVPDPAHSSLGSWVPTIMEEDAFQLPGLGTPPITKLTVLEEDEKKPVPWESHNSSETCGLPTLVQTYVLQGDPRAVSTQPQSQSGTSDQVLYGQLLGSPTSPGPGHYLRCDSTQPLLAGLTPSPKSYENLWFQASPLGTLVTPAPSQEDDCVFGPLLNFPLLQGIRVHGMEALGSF

[7] = biological target: T1, Recombinant human G-CSFR (Glu25-Pro621, …); experiment: SPR, rhG-CSFR on CM5 chip (Fig. 3E)

B1: bv6 (designed binder)
chain: MAALAAALAEIYKGLAEYQARLKSLEGISPELGPALDALRYDMADFAILMAQAMEEGLDSLPQSFLRKALEMIRKIQADAAALREKLAATYKGNDRAAAAVEIAAQLEAFLEKAYQILRHLAAA
notes: Expressed from pET28a downstream of an N-terminal His-tag and thrombin cleavage site; Minorly dimeric in solution; also called starting template
fold tighter binding than Boskar4 [1]: 12 fold | Kd [2]: 4.3 nM | koff [2]: 0.0051 s⁻¹ | kon [2]: 1.2e+06 M⁻¹ s⁻¹ | Kd [3]: 14 nM | koff [3]: 0.0033 s⁻¹ | kon [3]: 240000 M⁻¹ s⁻¹

B4: boa1 (designed binder)
chain: MAALAAALQSIYRKLAEMQAKLKSLEGISPELGPALDALRYDMADFAILMAQAMEEGLDSLPQSFLRKALEMIRKIQADAAALREKLAATYKGNDRADAAVYIAADLEILLEQAYQILRHLAAA
notes: Strictly monomeric in solution; Expressed from pET28a downstream of an N-terminal His-tag and thrombin cleavage site; also called bivalent-orientation antiparallel design 1
Kd [2]: 3.7 nM | koff [2]: 0.0024 s⁻¹ | kon [2]: 690000 M⁻¹ s⁻¹

B6: bv21 (designed binder)
chain: B1 chain with Y41W, I48Y, S64R, R67W
notes: Expressed from pET28a with N-terminal His-tag and thrombin cleavage site; also called Boskar4 variant bv21
Kd [4]: 1.4 nM | koff [4]: 0.0011 s⁻¹ | kon [4]: 820000 M⁻¹ s⁻¹

B7: bv22 (designed binder)
chain: B1 chain with I48Y, S64R, R67W
notes: Expressed from pET28a with N-terminal His-tag and thrombin cleavage site; also called Boskar4 variant bv22; second-generation variant
Kd [5]: 1.3 nM | koff [5]: 0.0018 s⁻¹ | kon [5]: 1.4e+06 M⁻¹ s⁻¹ | Kd [4]: 1.1 nM | koff [4]: 0.00092 s⁻¹ | kon [4]: 880000 M⁻¹ s⁻¹

B10: boa2 (designed binder)
chain: B4 chain with A20R, I103D, Q116E
notes: Strictly monomeric in solution; Expressed from pET28a downstream of an N-terminal His-tag and thrombin cleavage site; also called bivalent-orientation antiparallel design 2
fold tighter binding than bv6 [7]: 4 fold | Kd [2]: 1.1 nM | koff [2]: 0.0013 s⁻¹ | kon [2]: 1.4e+06 M⁻¹ s⁻¹

More lines, now with the values ahead:

Kd [4]: 1.7 nM | koff [4]: 0.0017 s⁻¹ | kon [4]: 1e+06 M⁻¹ s⁻¹
B2: bv24 (designed binder)
chain: B1 chain with Y41W, I48C, S64R, R67W
notes: Expressed from pET28a with N-terminal His-tag and thrombin cleavage site; also called Boskar4 variant bv24

Kd [4]: 1.8 nM | koff [4]: 0.0015 s⁻¹ | kon [4]: 860000 M⁻¹ s⁻¹
B3: bv23 (designed binder)
chain: B1 chain with I48Y, R67W, K75W
notes: Expressed from pET28a with N-terminal His-tag and thrombin cleavage site; also called Boskar4 variant bv23

Kd [2]: 2.7 nM | koff [2]: 0.0022 s⁻¹ | kon [2]: 880000 M⁻¹ s⁻¹ | Kd [5]: 3.2 nM | koff [5]: 0.0063 s⁻¹ | kon [5]: 2e+06 M⁻¹ s⁻¹
B5: bop1 (designed binder)
chain: MAALDAALYEIYDGLILYQQRLKSLEGISPELGPALDALRYDMADFAILMAQAMEEGLDSLPQSFLRKALEMIRKIQADAAALREKLAATYKGNDRAAAAQSIARKLEEMLEKAYQILRHLAAA
notes: De novo four-helix bundle, strictly monomeric in solution; Expressed from pET28a downstream of an N-terminal His-tag and thrombin cleavage site; also called bivalent-orientation parallel design 1

Kd [5]: 1.2 nM | koff [5]: 0.0018 s⁻¹ | kon [5]: 1.5e+06 M⁻¹ s⁻¹ | fold improvement in the receptor-binding affinity [6]: 10 fold | fold improvement in inhibitory potency compared to bop1, NFS-60 competitive inhibition assay (G-CSFR on NFS-60 cells): 3 fold | IC50, Kasumi-1 competitive inhibition assay, 400 pg/mL rhG-CSF (G-CSFR on Kasumi-1 cells): 1.97 nM
B8: bop3 (designed binder)
chain: B5 chain with I48Y, S64R, R67W
notes: exclusively monomeric by SEC; Expressed from pET28a downstream of an N-terminal His-tag and thrombin cleavage site

fold tighter binding than bv6 [7]: 4 fold | Kd [2]: 0.85 nM | koff [2]: 0.0013 s⁻¹ | kon [2]: 1.9e+06 M⁻¹ s⁻¹
B9: bop2 (designed binder)
chain: B5 chain with E10D, R21Q, K23E, E112R, I117D
notes: Strictly monomeric in solution; Expressed from pET28a downstream of an N-terminal His-tag and thrombin cleavage site; also called bivalent-orientation parallel design 2
